{"source": "patent US20250025544A1", "key": {"[1]": {"molecular_target": "… (EBV LMP2A, epitope 2) presented by HLA-A*0201 (human; EBV)", "test": "cell-based or functional assay"}, "[2]": {"molecular_target": "… (HCMV pp65, epitope 1) presented by HLA-A*0201 (human; HCMV)", "test": "cell-based or functional assay"}, "[3]": {"conditions": "scale: luciferase induction relative to uninfected controls"}}, "data": [{"substance": "TCR recognizing … presented by A*0201 (PDB #3REV), expressed on Jurkat-Lucia NFAT reporter T cells", "values": [{"measurement": "in vitro T cell activation assay (luciferase), targeting short cassette A (luciferase induction)", "setting": "[1]", "result": 6.1}, {"measurement": "in vitro T cell activation assay (luciferase), targeting short cassette B (luciferase induction)", "setting": "[1]", "result": 6.3}, {"measurement": "in vitro T cell activation assay (luciferase), targeting short cassette C (luciferase induction)", "setting": "[1]", "result": 7.6}, {"measurement": "in vitro T cell activation assay (luciferase), targeting short cassette D (luciferase induction)", "setting": "[1]", "result": 7}, {"measurement": "in vitro T cell activation assay (luciferase), targeting short cassette E (luciferase induction)", "setting": "[1]", "result": 5.9}, {"measurement": "in vitro T cell activation assay (luciferase), targeting short cassette F (luciferase induction)", "setting": "[1]", "result": 3.7}, {"measurement": "in vitro T cell activation assay (luciferase), targeting short cassette G (luciferase induction)", "setting": "[1]", "result": 7.6}, {"measurement": "in vitro T cell activation assay (luciferase), targeting short cassette H (luciferase induction)", "setting": "[1]", "result": 5.4}, {"measurement": "in vitro T cell activation assay (luciferase), targeting short cassette I (luciferase induction)", "setting": "[1]", "result": 6.2}, {"measurement": "in vitro T cell activation assay (luciferase), targeting short cassette J (luciferase induction)", "setting": "[1]", "result": 6.4}, {"measurement": "induction of luciferase, short cassette AAY (luciferase induction)", "setting": "[1]", "result": 11.3}, {"measurement": "luciferase induction, short cassette 9AA", "setting": "[1]", "result": 12}, {"measurement": "luciferase induction, short cassette 17AA", "setting": "[1]", "result": 10.3}, {"measurement": "luciferase induction, short cassette 25AA", "setting": "[1]", "result": 14.6}, {"measurement": "luciferase induction, short cassette AAY", "setting": "[1]", "result": 11.3}, {"measurement": "luciferase induction, short cassette DPP", "setting": "[1]", "result": 1.1}, {"measurement": "luciferase induction, short cassette RR", "setting": "[1]", "result": 8.5}]}, {"substance": "TCR recognizing … presented by A*0201 (PDB #5D2N), expressed on Jurkat-Lucia NFAT reporter T cells", "values": [{"measurement": "in vitro T cell activation assay (luciferase), targeting short cassette A (luciferase induction)", "setting": "[2]", "result": 32.5}, {"measurement": "in vitro T cell activation assay (luciferase), targeting short cassette B (luciferase induction)", "setting": "[2]", "result": 31.8}, {"measurement": "in vitro T cell activation assay (luciferase), targeting short cassette C (luciferase induction)", "setting": "[2]", "result": 29.1}, {"measurement": "in vitro T cell activation assay (luciferase), targeting short cassette D (luciferase induction)", "setting": "[2]", "result": 29.1}, {"measurement": "in vitro T cell activation assay (luciferase), targeting short cassette E (luciferase induction)", "setting": "[2]", "result": 28.4}, {"measurement": "in vitro T cell activation assay (luciferase), targeting short cassette F (luciferase induction)", "setting": "[2]", "result": 20.4}, {"measurement": "in vitro T cell activation assay (luciferase), targeting short cassette G (luciferase induction)", "setting": "[2]", "result": 35}, {"measurement": "in vitro T cell activation assay (luciferase), targeting short cassette H (luciferase induction)", "setting": "[2]", "result": 30.3}, {"measurement": "in vitro T cell activation assay (luciferase), targeting short cassette I (luciferase induction)", "setting": "[2]", "result": 22.5}, {"measurement": "in vitro T cell activation assay (luciferase), targeting short cassette J (luciferase induction)", "setting": "[2]", "result": 38.1}, {"measurement": "induction of luciferase, short cassette AAY (luciferase induction)", "setting": "[2]", "result": 24.5}, {"measurement": "luciferase induction, short cassette 9AA", "setting": "[2]; [3]", "result": 33.6}, {"measurement": "luciferase induction, short cassette 17AA", "setting": "[2]; [3]", "result": 42.8}, {"measurement": "luciferase induction, short cassette 25AA", "setting": "[2]; [3]", "result": 42.3}, {"measurement": "luciferase induction, short cassette AAY", "setting": "[2]; [3]", "result": 24.5}, {"measurement": "luciferase induction, short cassette DPP", "setting": "[2]; [3]", "result": 0.9}, {"measurement": "luciferase induction, short cassette RR", "setting": "[2]; [3]", "result": 21.7}]}]}
